Measured values published in patent publication US20240360245A1 (Daiichi Sankyo, published 2024).

Biological target: T1, recombinant human GARP (R&D Systems, catalog number 6055-LR) (human, UniProt Q14392 20-627)
T1 construct: Bought soluble protein; In the phage panning and Fab screening it was in part biotinylated; also called antigen
T1 sequence: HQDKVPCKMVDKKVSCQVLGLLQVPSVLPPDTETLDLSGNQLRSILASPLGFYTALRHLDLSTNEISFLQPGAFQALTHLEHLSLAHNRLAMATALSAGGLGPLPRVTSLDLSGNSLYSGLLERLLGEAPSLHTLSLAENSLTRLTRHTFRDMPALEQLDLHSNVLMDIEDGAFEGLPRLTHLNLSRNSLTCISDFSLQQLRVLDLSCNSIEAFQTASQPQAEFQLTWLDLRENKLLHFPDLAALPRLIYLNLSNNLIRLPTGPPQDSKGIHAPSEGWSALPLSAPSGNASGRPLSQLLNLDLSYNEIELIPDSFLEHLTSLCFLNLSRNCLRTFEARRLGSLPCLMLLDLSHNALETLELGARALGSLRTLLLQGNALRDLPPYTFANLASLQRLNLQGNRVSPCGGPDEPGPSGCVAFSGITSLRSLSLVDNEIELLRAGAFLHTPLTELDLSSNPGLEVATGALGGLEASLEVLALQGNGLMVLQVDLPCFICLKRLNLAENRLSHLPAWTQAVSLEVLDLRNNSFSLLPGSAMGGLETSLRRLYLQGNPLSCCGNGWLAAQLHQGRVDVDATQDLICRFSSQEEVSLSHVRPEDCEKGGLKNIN
Assay: ELISA, Fab in E. coli culture supernatant on coated or NeutrAvidin-captured biotinylated GARP
Method: 50 μL GARP, which had been diluted to 2 μg/mL with PBS (0.01 M phosphate buffered saline (pH 7.4) containing 0.138 M sodium chloride and 0.0027 M potassium chloride; Sigma-Aldrich), was added to each well of a 384-well Maxi-sorp plate (Black, Nunc), and it was then incubated overnight at 4° C. for coating the plate. Alternatively, 50 μL of NeutrAvidin (Life Technologies) which had been diluted to 1 μg/mL with PBS was added to such a 384-well Maxi-sorp plate for coating the plate (by incubating overnight at 4° C.). Thereafter, the plate was washed with an ELISA buffer (PBS (Sigma-Aldrich) supplemented with 0.05% Tween-20 (Bio-RAD)) three times, and biotinylated GARP was then added thereto (1 pmol/50 μL PBS/well), followed by incubation at room temperature for 1 hour with mixing. The plate was washed with ELISA buffer three times, was then blocked with Blocker Casein (Thermo Scientific), and was further washed with the ELISA buffer three times. Thereafter, a culture supernatant containing Fab produced by Escherichia coli was added, and the plate was then incubated at room temperature for 1 hour with mixing. […] Ten minutes later, chemiluminescence was measured using a plate reader (Envision 2104 Multilabel Reader, Perkin Elmer), and GARP-bound Fab was isolated.

B1: 110F Fab (ELISA-positive clone from the n-CoDeR Fab phage library) (Fab, V domains shown)
VH: EVQLLESGGGLVQPGGSLRLSCAASGFTFSSYGMHWVRQAPGKGLEWVAGISWNSAITVYADSVKGRFTISRDNSKNTLYLQMNSLRAEDTAVYYCAKDAGGRYSGSYYFDYWGQGTLVTVSS
VL: QSVLTQPPSASGTPGQRVTISCTGSSSNIGAGYDVHWYQQLPGTAPKLLIYGNSNRPSGVPDRFSGSKSGTSASLAISGLRSEDEADYYCQSYDRSLNWVFGGGTKLTVLG
notes: Fab produced in Escherichia coli and tested as culture supernatant
binding result: binds
